The target of experiment [1] is SARS-CoV-2 spike protein S1 (SARS-CoV-2). The experiment in a line: ITC. For orientation: ITC needs no label: the signal is the heat of the interaction.
The target of experiment [2] is SARS-CoV-2 spike protein S2 (SARS-CoV-2). In words: ITC.

We go through one substance from paper PMC8849053.

Several values for one entry are separate records, joined by “and”; a condition that tells them apart may be missing. Identical values can stand only once.

Consider “truncated canavalin (from UniProt P10562 242-445) (domain or fragment)”, for which, in experiment [1], the equilibrium dissociation constant (Kd) (as a rule, a measure of binding affinity in units of concentration) is 20 µM and 100 µM; the dH is -6 kcal/mol and -7 kcal/mol. Moreover, in experiment [2], the Kd is 10 µM and 80 µM; the dH is -0.8 kcal/mol.
